{"source": "patent US20260317437", "about": "(published 2026)", "binders": {"B1": {"name": "VH Y30Q (antibody, V domains shown)", "VH": "EVQLVESGGGLVQPGGSLRLSCAASGFNIQYNYIHWVRQAPGKGLEWVAEFSPYSGSTYYADSVKGRFTISADTSKNTAYLQMNSLRAEDTAVYYCARSAAIVDWYDYFKGFDYWGQGTLVTVSS", "VL": "DIQMTQSPSSLSASVGDRVTITCRASQSVSSAVAWYQQKPGKAPKLLIYSASSLYSGVPSRFSGSRSGTDFTLTISSLQPEDFATYYCQQYGSYLYTFGQGTKVEIK"}, "B2": {"name": "VL Y94W (antibody, V domains shown)", "VH": "B1 VH with Q30Y", "VL": "B1 VL with Y94W"}, "B3": {"name": "VL S93N (antibody, V domains shown)", "VH": "B1 VH with Q30Y", "VL": "B1 VL with S93N"}, "B4": {"name": "VL S93D (antibody, V domains shown)", "VH": "B1 VH with Q30Y", "VL": "B1 VL with S93D"}, "B5": {"name": "VH Y100bA (antibody, V domains shown)", "VH": "B1 VH with Q30Y, Y106A", "VL": "B1 VL"}, "B6": {"name": "VH Y31V (antibody, V domains shown)", "VH": "B1 VH with Q30Y, Y31V", "VL": "B1 VL"}, "B7": {"name": "VH Y30R (antibody, V domains shown)", "VH": "B1 VH with Q30R", "VL": "B1 VL"}, "B8": {"name": "VH V99K (antibody, V domains shown)", "VH": "B1 VH with Q30Y, V103K", "VL": "B1 VL"}, "B9": {"name": "VL Y91K (antibody, V domains shown)", "VH": "B1 VH with Q30Y", "VL": "B1 VL with Y91K"}, "B10": {"name": "VH Y30W (antibody, V domains shown)", "VH": "B1 VH with Q30W", "VL": "B1 VL"}, "B11": {"name": "VL S93E (antibody, V domains shown)", "VH": "B1 VH with Q30Y", "VL": "B1 VL with S93E"}, "B12": {"name": "VL S93K (antibody, V domains shown)", "VH": "B1 VH with Q30Y", "VL": "B1 VL with S93K"}, "B13": {"name": "VL Y91Q (antibody, V domains shown)", "VH": "B1 VH with Q30Y", "VL": "B1 VL with Y91Q"}, "B14": {"name": "VH Y100bV (antibody, V domains shown)", "VH": "B1 VH with Q30Y, Y106V", "VL": "B1 VL"}, "B15": {"name": "VL Y91F (antibody, V domains shown)", "VH": "B1 VH with Q30Y", "VL": "B1 VL with Y91F"}, "B16": {"name": "VH Y30V (antibody, V domains shown)", "VH": "B1 VH with Q30V", "VL": "B1 VL"}, "B17": {"name": "VL Y91S (antibody, V domains shown)", "VH": "B1 VH with Q30Y", "VL": "B1 VL with Y91S"}, "B18": {"name": "VH Y30F (antibody, V domains shown)", "VH": "B1 VH with Q30F", "VL": "B1 VL"}, "B19": {"name": "VL S93R (antibody, V domains shown)", "VH": "B1 VH with Q30Y", "VL": "B1 VL with S93R"}, "B20": {"name": "VH Y31L (antibody, V domains shown)", "VH": "B1 VH with Q30Y, Y31L", "VL": "B1 VL"}, "B21": {"name": "VH Y30K (antibody, V domains shown)", "VH": "B1 VH with Q30K", "VL": "B1 VL"}, "B22": {"name": "VL S93F (antibody, V domains shown)", "VH": "B1 VH with Q30Y", "VL": "B1 VL with S93F"}, "B23": {"name": "VL Y94H (antibody, V domains shown)", "VH": "B1 VH with Q30Y", "VL": "B1 VL with Y94H"}, "B24": {"name": "VL Y91W (antibody, V domains shown)", "VH": "B1 VH with Q30Y", "VL": "B1 VL with Y91W"}, "B25": {"name": "VL Y94L (antibody, V domains shown)", "VH": "B1 VH with Q30Y", "VL": "B1 VL with Y94L"}, "B26": {"name": "VL S93T (antibody, V domains shown)", "VH": "B1 VH with Q30Y", "VL": "B1 VL with S93T"}, "B27": {"name": "VH Y31T (antibody, V domains shown)", "VH": "B1 VH with Q30Y, Y31T", "VL": "B1 VL"}, "B28": {"name": "VL S93Q (antibody, V domains shown)", "VH": "B1 VH with Q30Y", "VL": "B1 VL with S93Q"}, "B29": {"name": "VL Y94F (antibody, V domains shown)", "VH": "B1 VH with Q30Y", "VL": "B1 VL with Y94F"}, "B30": {"name": "VL Y94R (antibody, V domains shown)", "VH": "B1 VH with Q30Y", "VL": "B1 VL with Y94R"}, "B31": {"name": "VL Y94E (antibody, V domains shown)", "VH": "B1 VH with Q30Y", "VL": "B1 VL with Y94E"}, "B32": {"name": "VH Y30S (antibody, V domains shown)", "VH": "B1 VH with Q30S", "VL": "B1 VL"}, "B33": {"name": "VH Y30D (antibody, V domains shown)", "VH": "B1 VH with Q30D", "VL": "B1 VL"}, "B34": {"name": "VL Y94D (antibody, V domains shown)", "VH": "B1 VH with Q30Y", "VL": "B1 VL with Y94D"}, "B35": {"name": "VL Y91E (antibody, V domains shown)", "VH": "B1 VH with Q30Y", "VL": "B1 VL with Y91E"}}, "note": "Substitutions are numbered along the chain they refer to. Names and notes keep the numbering of the source.", "data": [{"target": "GCGR extracellular domain (human, UniProt P47871)", "sequence (P47871 26-477)": "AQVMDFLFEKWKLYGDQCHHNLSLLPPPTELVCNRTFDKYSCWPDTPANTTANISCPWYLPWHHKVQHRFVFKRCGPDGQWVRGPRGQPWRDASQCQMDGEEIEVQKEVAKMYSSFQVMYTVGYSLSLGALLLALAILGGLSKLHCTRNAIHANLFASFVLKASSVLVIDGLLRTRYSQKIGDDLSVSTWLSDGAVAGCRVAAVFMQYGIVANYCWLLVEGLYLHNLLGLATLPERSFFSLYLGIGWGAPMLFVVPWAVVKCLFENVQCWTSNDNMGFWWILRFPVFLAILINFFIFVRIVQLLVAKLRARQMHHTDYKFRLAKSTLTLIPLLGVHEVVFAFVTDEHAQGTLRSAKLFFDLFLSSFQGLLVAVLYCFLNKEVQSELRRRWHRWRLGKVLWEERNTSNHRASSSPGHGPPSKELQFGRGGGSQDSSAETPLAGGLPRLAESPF", "test": "SPR", "units": {"Kd": "nM"}, "values": [{"binder": "B1", "Kd": 23.4}, {"binder": "B2", "Kd": 2.55}, {"binder": "B3", "Kd": 0.962}, {"binder": "B4", "Kd": 1.3}, {"binder": "B5", "Kd": 3.54}, {"binder": "B6", "Kd": 406}, {"binder": "B7", "Kd": 110}, {"binder": "B8", "Kd": 17.3}, {"binder": "B9", "Kd": 2.08}, {"binder": "B10", "Kd": 6.44}, {"binder": "B11", "Kd": 0.968}, {"binder": "B12", "Kd": 2.91}, {"binder": "B13", "Kd": 2.36}, {"binder": "B14", "Kd": 1.08}, {"binder": "B15", "Kd": 1.69}, {"binder": "B16", "Kd": 6.68}, {"binder": "B17", "Kd": 2.31}, {"binder": "B18", "Kd": 1.23}, {"binder": "B19", "Kd": 0.766}, {"binder": "B20", "Kd": 2640}, {"binder": "B21", "Kd": 363}, {"binder": "B22", "Kd": 5.59}, {"binder": "B23", "Kd": 3.02}, {"binder": "B24", "Kd": 3.02}, {"binder": "B25", "Kd": 2.05}, {"binder": "B26", "Kd": 1.27}, {"binder": "B27", "Kd": 194}, {"binder": "B28", "Kd": 2.18}, {"binder": "B29", "Kd": 2.23}, {"binder": "B30", "Kd": 1.41}, {"binder": "B31", "Kd": 1.85}, {"binder": "B32", "Kd": 261}, {"binder": "B33", "Kd": 20.2}, {"binder": "B34", "Kd": 1.92}, {"binder": "B35", "Kd": 3.42}]}]}
